Measured values reported in US20250312468A1, “ANTI-PROTAC ANTIBODIES AND COMPLEXES” (Merck Patent GmbH, priority 2021, published 2025).

How the values were obtained:
MDAMB468 cells = experiment: CellTiter-Glo cell viability assay (VHH-based PAX); conditions: gemtuzumab-based vs cetuximab-based construct, GNE987 (1:1)
Method: (§1) Several cell viability experiments were performed following the procedure described below: Cells were seeded in different media into white cell culture-treated flat and clear bottom multiwell plates followed by overnight incubation in a humid chamber at 37° C. and 5% CO2. Complexation was performed as described in chapter 7.4.
(§2) The solutions were added to the cells based on the antibody concentration using nanodrop dispension using a Tecan D300e Digital Dispenser and all wells were normalized to the same volume using 0.3% TW20 in PBS pH 7.4 and DMSO to a final solvent concentration of 0.05% DMSO and 0.003% TW20. Incubation was performed at 37° C. at 5% or 10% CO2 dependent on the medium. The assay was developed after 3 days if not otherwise stated using CellTiter-Glo Luminescent Cell Viability Assay as described in the manufacturer's protocol. In brief, the plates were equilibrated to room temperature for 30 minutes. 100 mL CellTiter-Glo Buffer were added to the CellTiter-Glo Substrate Flask and mixed well. 30 μL of the reagent was transferred to each well. After incubation for 3 minutes at room temperature while shaking at 550 rpm, the plate was incubated for another 10 minutes at room temperature. The luminescence was read on an Envision reader from Perkin Elmer. Solvent alone and Bortezomib (1.0E-05 M) served as high control (100% viability) and low control (0% viability), respectively. Raw data were converted into percent cell viability relative to the high and low control, which were set to 100% and 0%, respectively. […] The concentration corresponds to the concentration of PROTACs in the PAX.

HEPG2 cells = experiment: CellTiter-Glo cell viability assay (VHH-based PAX); conditions: cetuximab-based construct, GNE987 (1:1)
Method: as §1, §2

| Molecule | Selectivity Index IC5O(G)/IC50(C) (MDAMB468 cells) | Selectivity Index IC50 of C on HEPG2/MDAMB468 (HEPG2 cells) |
| --- | --- | --- |
| MIC5: anti-PROTAC VHH clone, SEQ ID NO: 24 (protein, new world camelid) VHH: AVQLVDSGGGLVQAGGSLRLSCAASGFTFDDYAIGWFRQAPGKEPEGILCISSSDGSAYVRDSVKGRFTMSSDNAKNTMYLQMNSLRTEDTAVYHCAVATGSCPADGGQKIFLEVWGQGTQVTVSS | 98.1 | – |
| MIC7: anti-PROTAC VHH clone, SEQ ID NO: 20 (protein, new world camelid) VHH: AVQLVESGGGLVQAGGSLRLSCAASGFSFDDYALGWFRQAPGKEPEGLSCISSSDGSTWYADSVKGRFTISSDNAKNTVYLQMNSLKPEDTAVYYCSAIYRLSCSVVRPTIRYALDYWGQGTQVTVSS | 20.9 | 565.3 |
